The experiment concerns the target Pure recombinant PlmA (Synechococcus elongatus PCC7942). Briefly: SEC; 0.1 mg pure PlmA in 0.1 ml on Superdex 200 10/300 GL, 0.3 ml/min, 50 mM Hepes pH 7.5, 0.5 M NaCl, 1 mM 2-mercaptoethanol; calibrated with protein standards. In general terms: SEC sorts molecules by how far they enter the pores of the column.

The term stoichiometry N denotes the number of molecules, sites or subunits per partner or assembly. Turning to Pure recombinant PlmA (natural protein), the stoichiometry N was found to be 2.

Source of the values: paper PMC5083789.
